Measurements reported in paper PMC7843029 (Cell, 2021).

Biological target: T1, RBD mouse Fc-tagged antigen (Sino Biological, Cat. No. 40592-V05H) (SARS-CoV-2, UniProt P0DTC2)
T1 construct: source: bought: Sino Biological
Assay: ELISA
Conditions: both partners purified

B1: S304 IgG (antibody, V domains shown)
VH: EVQLVESGGGLVQPGGSLRLSCAASGFTFSSYDMHWVRQTTGKGLEWVSTIGTAGDTYYPDSVKGRFTISREDAKNSLYLQMNSLRAGDTAVYYCARGDSSGYYYYFDYWGQGTLLTVSS
VL: DIQMTQSPSSLSAAVGDRVTITCRASQSIGSYLNWYQQKPGKAPKLLIYAASSLQSGVPSRFSGSGSGTDFTLTISSLQPEDFAIYYCQQSYVSPTYTFGPGTKVDIK
notes: copies: 2 + 2
B1: binds.
